Data on 1 molecule can be found in PMC4413027 (Nature Communications, 2015).

The experiment concerns the target T1, Full-length human CDK1 from a 3C-protease cleavable GST fusion (GPLGS left at the N terminus), … (human, UniProt P06493 1-297).
T1 construct: short cloning artefact left at the N terminus after 3C cleavage of the GST fusion; CDK1, human, full length; also called GST-CDK1 (before cleavage); unphosphorylated CDK1; source: insect cells (Sf9, baculovirus pVL1393GST-CDK1), purified (glutathione-sepharose 4B, GST-3C cleavage, SEC); for ITC treated with λ-phosphatase and purified again by SEC; not shown: GST, N-terminal, cleaved
The experiment can be described thus: ITC; higher salt, higher pH: 50 mM HEPES pH 8.0, 500 mM NaCl, 0.01% MTG, 30 °C; cyclin in the cell, unphosphorylated CDK from the syringe; one-set-of-sites model. Conditions: both partners purified. For orientation: Isothermal titration calorimetry measures the heat released or taken up as one component is titrated into another.

T1 sequence (P06493 other isoform, or with tags, fused parts or gaps): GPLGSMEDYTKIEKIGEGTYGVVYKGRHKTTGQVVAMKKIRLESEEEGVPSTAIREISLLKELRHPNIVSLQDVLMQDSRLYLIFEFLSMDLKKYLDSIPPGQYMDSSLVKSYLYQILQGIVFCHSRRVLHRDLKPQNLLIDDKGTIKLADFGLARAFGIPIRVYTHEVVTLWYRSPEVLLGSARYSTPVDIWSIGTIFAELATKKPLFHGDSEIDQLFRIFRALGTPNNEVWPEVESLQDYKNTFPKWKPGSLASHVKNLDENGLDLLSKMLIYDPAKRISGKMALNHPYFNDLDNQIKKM

B1: Human cyclin B1, residues 165–433 carrying the C167S/C238S/C350S mutations (domain or fragment)
chain: GSHMNLSSEYVKDIYAYLRQLEEEQAVRPKYLLGREVTGNMRAILIDWLVQVQMKFRLLQETMYMTVSIIDRFMQNNSVPKKMLQLVGVTAMFIASKYEEMYPPEIGDFAFVTDNTYTKHQIRQMEMKILRALNFGLGRPLPLHFLRRASKIGEVDVEQHTLAKYLMELTMLDYDMVHFPPSQIAAGAFSLALKILDNGEWTPTLQHYLSYTEESLLPVMQHLAKNVVMVNQGLTKHMTVKNKYATSKHAKISTLPQLNSALVQDLAKAVAKV
notes: artefact left N-terminal to N165 after thrombin cleavage of the hexa-histidine tag; cyclin B1, human, residues 165–433 (begins at N165); not shown: His6, N-terminal, cleaved
Usually Kd stands for the equilibrium constant for the complex coming apart. Take B1: the Kd came out at 0.028 µM.
